Legend:
[1] = molecular target: 3x2F pep11-9 (artificial); assay: in vitro fluorescence ELISA, values in figure only; details: label: biotin
Experimental: (§1) Incubations are performed at room temperature for 40 minutes. Black streptavidin-coated wells are blocked with 4% marvel for 1 hour. Binding reactions are added to the streptavidin-coated wells and incubated for a further 40 minutes at room temperature. Wells are washed 5 times in 100 μl wash buffer (1×PBS (pH 7.0), […] ZnCl₂, 0.01 mg/ml BSA, and 0.5% Tween 20), and finally 50 μl QuantaBlu peroxidase substrate solution (Pierce) is added to detect bound HA-tagged zinc finger peptide. ELISA signals are read in a SPECTRAmax GeminiXS spectrophotometer (Molecular Devices) and analysed using SOFTmax Pro 3.1.2 (Molecular Devices).
(§2) To compare the specificity of the 2x3F pep11-9 and 3x2F pep11-9 peptides, samples from the same translation reaction are assayed against each of the binding sites above. The ELISA signals obtained from each assay are then normalised relative to the maximum signal obtained for that peptide. (In this way the absolute amount of either peptide produced by the in vitro transcription/translation system is insignificant).

[2] = molecular target: 2x3F pep11-9 (artificial); assay: in vitro fluorescence ELISA, values in figure only; details: label: biotin
Sequence of 2x3F pep11-9 (artificial) (chain, as listed by the source): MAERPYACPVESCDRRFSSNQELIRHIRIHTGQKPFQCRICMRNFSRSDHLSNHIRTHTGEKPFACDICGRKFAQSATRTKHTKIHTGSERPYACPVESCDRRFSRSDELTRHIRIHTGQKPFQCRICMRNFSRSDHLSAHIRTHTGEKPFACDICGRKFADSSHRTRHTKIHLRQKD
Experimental: as §1, §2

Sequence of 3x2F pep11-9 (artificial) (chain, as listed by the source): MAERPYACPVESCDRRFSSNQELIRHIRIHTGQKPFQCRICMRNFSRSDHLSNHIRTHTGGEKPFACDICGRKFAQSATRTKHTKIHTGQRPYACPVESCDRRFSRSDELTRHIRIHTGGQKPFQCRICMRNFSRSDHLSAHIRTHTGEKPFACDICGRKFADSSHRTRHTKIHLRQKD

B1: 11-9 (dsDNA)
DNA 1: GGCCAGGCGGCAGGGGTT
DNA 2: AACCCCTGCCGCCTGGCC
B1: binds [1]; binds [2].

From US20030119023, “Nucleic acid binding polypeptides characterized by flexible linkers connected nucleic acid binding modules” (published 2003)
